According to publication PMC2646901:

Experiments:
[1] = molecular target: human C5a receptor (C5aR) (human) (UniProt P21730); assay: flow cytometry on cells; kinetics: 300 nM FITC-CHIPS(28-149) added to C5aR-transfected RBL cells, dissociation started with 14 μM unlabelled CHIPS(28-149); Kd from kobs and koff, five experiments
[2] = molecular target: formyl peptide receptor (FPR) (UniProt P21462)
[3] = molecular target: human C5a receptor (C5aR) (human) (UniProt P21730)
[4] = molecular target: human C5a receptor (C5aR) (human) (UniProt P21730); assay: flow cytometry on cells; competition: RBL cells transfected with human C5aR pre-treated with unlabelled CHIPS or human C5a, then 210 nM FITC-rCHIPS(28-149); cell-associated fluorescence
[5] = molecular target: C5a-like receptor 2 (C5L2), the second C5a receptor (UniProt Q9P296); assay: flow cytometry on cells; inhibition of ligand binding: transfected cells co-incubated with rCHIPS(28-149) and His6-C5a (50 nM), His6-C5a des Arg (50 nM) or FITC-formyl peptide (500 nM); 30 min at 4 °C in PBS + 0.1% BSA, 0.2% NaN3; His6 ligands detected with anti-RGSHis6 and anti-mouse IgG-FITC
Chain of C5a-like receptor 2 (C5L2), the second C5a receptor (Q9P296 whole entry): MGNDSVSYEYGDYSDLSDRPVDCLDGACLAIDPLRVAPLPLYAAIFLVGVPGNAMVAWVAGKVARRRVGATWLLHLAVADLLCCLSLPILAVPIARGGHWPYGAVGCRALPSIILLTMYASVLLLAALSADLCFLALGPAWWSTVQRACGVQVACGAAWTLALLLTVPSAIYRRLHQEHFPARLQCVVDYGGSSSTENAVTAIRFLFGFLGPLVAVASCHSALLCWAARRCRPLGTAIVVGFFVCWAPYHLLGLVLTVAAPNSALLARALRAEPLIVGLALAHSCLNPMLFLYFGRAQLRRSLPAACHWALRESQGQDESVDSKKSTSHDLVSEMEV

[6] = molecular target: human C5a receptor (C5aR) (human) (UniProt P21730); assay: as above

Chain of human C5a receptor (C5aR) (human) (P21730 whole entry): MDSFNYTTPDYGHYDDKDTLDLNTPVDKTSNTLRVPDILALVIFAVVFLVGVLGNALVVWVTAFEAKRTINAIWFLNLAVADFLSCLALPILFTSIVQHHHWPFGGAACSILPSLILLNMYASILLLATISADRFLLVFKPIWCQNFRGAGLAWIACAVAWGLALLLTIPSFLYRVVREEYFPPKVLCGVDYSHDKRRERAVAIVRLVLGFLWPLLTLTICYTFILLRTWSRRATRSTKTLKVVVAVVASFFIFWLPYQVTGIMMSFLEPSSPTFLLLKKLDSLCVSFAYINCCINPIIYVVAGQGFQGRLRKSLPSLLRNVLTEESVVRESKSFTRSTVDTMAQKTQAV
Chain of formyl peptide receptor (FPR) (P21462 whole entry): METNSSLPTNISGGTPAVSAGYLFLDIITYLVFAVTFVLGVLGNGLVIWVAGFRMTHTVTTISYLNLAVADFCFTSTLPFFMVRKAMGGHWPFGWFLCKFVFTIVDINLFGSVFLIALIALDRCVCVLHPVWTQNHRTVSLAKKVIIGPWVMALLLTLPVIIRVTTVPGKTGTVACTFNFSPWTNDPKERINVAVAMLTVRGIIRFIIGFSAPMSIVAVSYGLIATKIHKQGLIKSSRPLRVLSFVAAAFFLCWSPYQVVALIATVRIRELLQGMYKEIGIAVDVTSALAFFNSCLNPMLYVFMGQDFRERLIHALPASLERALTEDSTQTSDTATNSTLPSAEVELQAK

## FITC-labelled recombinant CHIPS_(28–149) (from UniProt A6QIG7 28-149) (domain or fragment)
[1]
  t1/2 of association: 0.17 min
  t1/2 of dissociation: 0.73 min

## rCHIPS_(30–141) (from UniProt A6QIG7 30-141) (domain or fragment)
[2]
  inhibition of FPR activation by formyl peptide on RBL cells (Schild plot); potency relative to rCHIPS(28-149): 12 fold

## recombinant chemotaxis inhibitory protein of Staphylococcus aureus, residues 28-149 (rCHIPS_(28–149)) (from UniProt A6QIG7 28-149) (domain or fragment)
[2]
  inhibition of formyl peptide-induced activation of FPR on RBL cells (secretion of β-hexosaminidase): > 1 mM
[3]
  inhibition of C5a-induced activation of C5aR on RBL cells (secretion of β-hexosaminidase); blocks C5a + C5aR: 2.44 µM
[4]
  IC50: 69 nM
[5]
  IC50: 274 nM
[6]
  IC50: 6.7 nM
